Bridge positions count the residues as written; N and C are the ends. * marks the point of attachment. tMeBn(DOTA-AET) = Cys-Cys bridge (thioethers) carrying DOTA-AET; tMeBn(DOTA-PP) = Cys-Cys bridge (thioethers) carrying DOTA-PP; Hexanoyl = CCCCCC(=O)*
T1: D2S (h) (human (printed (h))), P14416
T1 chain: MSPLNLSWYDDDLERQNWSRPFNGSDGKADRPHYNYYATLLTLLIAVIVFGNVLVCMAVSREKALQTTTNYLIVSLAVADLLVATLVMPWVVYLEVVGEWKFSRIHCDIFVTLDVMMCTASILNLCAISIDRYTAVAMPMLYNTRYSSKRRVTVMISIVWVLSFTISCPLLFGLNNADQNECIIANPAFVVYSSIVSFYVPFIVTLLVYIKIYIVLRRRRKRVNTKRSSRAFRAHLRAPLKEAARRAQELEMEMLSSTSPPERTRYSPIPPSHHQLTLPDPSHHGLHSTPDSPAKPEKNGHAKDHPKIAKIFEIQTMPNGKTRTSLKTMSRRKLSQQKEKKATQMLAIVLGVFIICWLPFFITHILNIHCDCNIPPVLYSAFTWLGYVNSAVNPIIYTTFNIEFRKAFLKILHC

T2: M2 (h) (human (printed (h))), P08172
T2 chain: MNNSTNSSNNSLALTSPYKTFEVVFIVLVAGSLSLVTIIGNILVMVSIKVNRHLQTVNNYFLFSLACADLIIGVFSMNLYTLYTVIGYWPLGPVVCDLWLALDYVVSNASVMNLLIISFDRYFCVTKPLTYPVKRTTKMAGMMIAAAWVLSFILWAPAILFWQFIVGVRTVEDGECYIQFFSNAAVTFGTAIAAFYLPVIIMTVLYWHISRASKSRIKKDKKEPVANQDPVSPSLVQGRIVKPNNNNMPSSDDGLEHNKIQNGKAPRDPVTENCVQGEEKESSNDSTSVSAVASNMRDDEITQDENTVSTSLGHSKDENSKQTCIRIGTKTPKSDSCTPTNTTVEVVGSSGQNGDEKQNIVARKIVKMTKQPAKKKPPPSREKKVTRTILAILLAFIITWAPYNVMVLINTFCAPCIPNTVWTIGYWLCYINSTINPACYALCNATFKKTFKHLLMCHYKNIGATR

T3: alpha 2A (h) (human (printed (h))), P08913
T3 chain: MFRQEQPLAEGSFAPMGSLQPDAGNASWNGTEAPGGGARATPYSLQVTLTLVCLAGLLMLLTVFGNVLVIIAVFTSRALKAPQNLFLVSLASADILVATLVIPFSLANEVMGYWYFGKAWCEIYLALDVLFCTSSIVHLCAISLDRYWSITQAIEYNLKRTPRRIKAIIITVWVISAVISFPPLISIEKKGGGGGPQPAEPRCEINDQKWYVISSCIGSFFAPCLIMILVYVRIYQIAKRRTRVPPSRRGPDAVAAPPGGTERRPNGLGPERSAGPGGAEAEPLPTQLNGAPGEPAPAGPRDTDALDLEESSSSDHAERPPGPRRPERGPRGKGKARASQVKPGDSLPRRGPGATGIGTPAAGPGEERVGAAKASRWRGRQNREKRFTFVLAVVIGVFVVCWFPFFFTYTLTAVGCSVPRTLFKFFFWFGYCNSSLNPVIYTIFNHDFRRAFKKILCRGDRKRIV

T4: A2A (h) (human (printed (h))), P29274
T4 chain: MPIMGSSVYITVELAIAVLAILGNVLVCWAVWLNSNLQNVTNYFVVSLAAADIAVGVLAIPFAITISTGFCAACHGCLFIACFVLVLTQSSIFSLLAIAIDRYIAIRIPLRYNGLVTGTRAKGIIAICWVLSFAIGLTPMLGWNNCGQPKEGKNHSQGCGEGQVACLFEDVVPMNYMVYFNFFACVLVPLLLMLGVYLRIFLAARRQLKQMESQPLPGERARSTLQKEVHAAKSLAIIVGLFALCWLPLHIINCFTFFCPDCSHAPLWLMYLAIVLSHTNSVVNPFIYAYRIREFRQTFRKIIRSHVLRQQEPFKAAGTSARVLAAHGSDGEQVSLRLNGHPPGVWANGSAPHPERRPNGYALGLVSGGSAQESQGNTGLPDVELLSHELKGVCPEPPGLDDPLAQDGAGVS

T5: 5-HT3 (h) (human (printed (h))), P46098
T5 chain: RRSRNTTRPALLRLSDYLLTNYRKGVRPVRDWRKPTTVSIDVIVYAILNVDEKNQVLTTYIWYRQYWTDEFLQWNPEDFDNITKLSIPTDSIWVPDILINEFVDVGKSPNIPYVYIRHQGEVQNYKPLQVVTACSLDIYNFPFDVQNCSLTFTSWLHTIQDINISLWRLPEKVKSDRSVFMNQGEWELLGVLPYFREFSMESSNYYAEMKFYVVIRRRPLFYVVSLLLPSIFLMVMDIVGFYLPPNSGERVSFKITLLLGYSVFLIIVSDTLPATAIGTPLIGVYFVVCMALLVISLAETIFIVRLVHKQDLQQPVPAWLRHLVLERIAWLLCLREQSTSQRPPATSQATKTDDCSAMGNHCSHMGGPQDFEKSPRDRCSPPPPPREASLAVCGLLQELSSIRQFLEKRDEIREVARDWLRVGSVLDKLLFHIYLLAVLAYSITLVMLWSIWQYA

T6: CCK1 (CCKA) (h) (human (printed (h))), P32238
T6 chain: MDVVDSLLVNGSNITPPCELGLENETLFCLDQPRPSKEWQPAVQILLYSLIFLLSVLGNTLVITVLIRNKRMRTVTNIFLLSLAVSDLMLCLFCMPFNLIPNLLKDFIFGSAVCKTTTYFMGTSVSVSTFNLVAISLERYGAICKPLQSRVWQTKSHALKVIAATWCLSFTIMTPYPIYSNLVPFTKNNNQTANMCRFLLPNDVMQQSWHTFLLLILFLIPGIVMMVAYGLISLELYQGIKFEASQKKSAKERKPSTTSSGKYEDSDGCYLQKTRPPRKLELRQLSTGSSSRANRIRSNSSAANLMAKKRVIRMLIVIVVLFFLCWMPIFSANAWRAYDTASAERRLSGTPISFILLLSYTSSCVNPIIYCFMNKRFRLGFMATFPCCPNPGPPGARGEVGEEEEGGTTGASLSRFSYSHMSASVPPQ

B1: Hex-[Cys(tMeBn(DOTA-PP))-Pro-Pro-Thr-Gln-Phe-Cys]-Asp-NH2 (3BP-3407) (peptide)
peptide: Hexanoyl-CPPTQFCD-NH2
modifications: linker 1-7 via tMeBn(DOTA-PP)
B2: Hex-[Cys(tMeBn(DOTA-AET))-Pro-Pro-Thr-Gln-Phe-Cys]-OH (3BP-3554) (peptide)
peptide: Hexanoyl-CPPTQFC-OH
modifications: linker 1-7 via tMeBn(DOTA-AET)

Key:
Assay in all cases: radioligand displacement, 10 uM compound
Details in all cases: remark: other sources report otherwise
[1] = biological target: T1, D2S (h) (human (printed (h))), P14416
[2] = biological target: T2, M2 (h) (human (printed (h))), P08172
[3] = biological target: T3, alpha 2A (h) (human (printed (h))), …
[4] = biological target: H1 (h) (human (printed (h))), P35367
Chain of H1 (h) (human (printed (h))), P35367 (P35367 whole entry): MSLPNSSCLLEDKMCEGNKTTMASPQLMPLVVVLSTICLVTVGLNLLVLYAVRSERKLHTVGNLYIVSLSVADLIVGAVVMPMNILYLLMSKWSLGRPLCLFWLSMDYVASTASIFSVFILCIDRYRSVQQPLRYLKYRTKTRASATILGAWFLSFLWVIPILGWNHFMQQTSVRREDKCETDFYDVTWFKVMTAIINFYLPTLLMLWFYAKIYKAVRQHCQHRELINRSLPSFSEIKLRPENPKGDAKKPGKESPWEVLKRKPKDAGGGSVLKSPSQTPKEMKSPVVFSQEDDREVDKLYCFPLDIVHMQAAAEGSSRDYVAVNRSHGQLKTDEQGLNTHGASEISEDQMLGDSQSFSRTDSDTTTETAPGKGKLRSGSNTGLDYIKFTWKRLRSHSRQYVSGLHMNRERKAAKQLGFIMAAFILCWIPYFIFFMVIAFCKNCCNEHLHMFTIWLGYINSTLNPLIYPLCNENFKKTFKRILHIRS

[5] = biological target: norepinephrine transporter (h) (human (printed (h))), P23975
Chain of norepinephrine transporter (h) (human (printed (h))), P23975 (P23975 whole entry): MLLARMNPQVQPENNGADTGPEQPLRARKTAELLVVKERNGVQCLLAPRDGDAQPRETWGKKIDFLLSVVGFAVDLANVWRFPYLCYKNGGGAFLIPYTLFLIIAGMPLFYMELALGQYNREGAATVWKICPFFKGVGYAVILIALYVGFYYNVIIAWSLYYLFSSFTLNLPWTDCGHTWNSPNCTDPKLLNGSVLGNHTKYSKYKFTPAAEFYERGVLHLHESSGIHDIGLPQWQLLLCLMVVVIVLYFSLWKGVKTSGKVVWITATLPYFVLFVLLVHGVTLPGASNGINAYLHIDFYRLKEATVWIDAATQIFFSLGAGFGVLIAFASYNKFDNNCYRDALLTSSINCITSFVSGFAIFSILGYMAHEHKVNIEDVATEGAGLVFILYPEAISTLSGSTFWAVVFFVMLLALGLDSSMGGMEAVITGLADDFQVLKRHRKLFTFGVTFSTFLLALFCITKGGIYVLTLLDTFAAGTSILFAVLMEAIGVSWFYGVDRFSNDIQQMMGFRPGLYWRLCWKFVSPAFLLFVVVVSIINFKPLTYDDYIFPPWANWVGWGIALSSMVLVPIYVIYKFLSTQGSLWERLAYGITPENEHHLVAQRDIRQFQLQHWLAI

[6] = biological target: T4, A2A (h) (human (printed (h))), P29274
[7] = biological target: T5, 5-HT3 (h) (human (printed (h))), P46098
[8] = biological target: T6, CCK1 (CCKA) (h) (human (printed (h))), …

Row | Binder | % Inhibition of Specific Binding [1] [%] | % Inhibition of Specific Binding [2] [%] | % Inhibition of Specific Binding [3] [%] | % Inhibition of Specific Binding [4] [%] | % Inhibition of Specific Binding [5] [%] | % Inhibition of Specific Binding [6] [%] | % Inhibition of Specific Binding [7] [%] | % Inhibition of Specific Binding [8] [%]
1 | B1 | 15 | -4 | -9 | 11 | -8 | -4 | 2 | 24
2 | B2 | -7 | 7 | 2 | 4 | -5 | -16 | 4 | 16
